Measured values reported in publication PMC6328869, “Functional and structural studies of tolloid-like 1 mutants associated with atrial-septal defect 6” (Bioscience Reports, 2018).

T1: recombinant murine chordin (murine, UniProt Q9Z0E2 27-948)
T1 construct: Chordin, murine, recombinant (R&D Systems); The source and species of chordin are told for the cleavage assay; source: bought: R&D Systems
T1 sequence (looked up): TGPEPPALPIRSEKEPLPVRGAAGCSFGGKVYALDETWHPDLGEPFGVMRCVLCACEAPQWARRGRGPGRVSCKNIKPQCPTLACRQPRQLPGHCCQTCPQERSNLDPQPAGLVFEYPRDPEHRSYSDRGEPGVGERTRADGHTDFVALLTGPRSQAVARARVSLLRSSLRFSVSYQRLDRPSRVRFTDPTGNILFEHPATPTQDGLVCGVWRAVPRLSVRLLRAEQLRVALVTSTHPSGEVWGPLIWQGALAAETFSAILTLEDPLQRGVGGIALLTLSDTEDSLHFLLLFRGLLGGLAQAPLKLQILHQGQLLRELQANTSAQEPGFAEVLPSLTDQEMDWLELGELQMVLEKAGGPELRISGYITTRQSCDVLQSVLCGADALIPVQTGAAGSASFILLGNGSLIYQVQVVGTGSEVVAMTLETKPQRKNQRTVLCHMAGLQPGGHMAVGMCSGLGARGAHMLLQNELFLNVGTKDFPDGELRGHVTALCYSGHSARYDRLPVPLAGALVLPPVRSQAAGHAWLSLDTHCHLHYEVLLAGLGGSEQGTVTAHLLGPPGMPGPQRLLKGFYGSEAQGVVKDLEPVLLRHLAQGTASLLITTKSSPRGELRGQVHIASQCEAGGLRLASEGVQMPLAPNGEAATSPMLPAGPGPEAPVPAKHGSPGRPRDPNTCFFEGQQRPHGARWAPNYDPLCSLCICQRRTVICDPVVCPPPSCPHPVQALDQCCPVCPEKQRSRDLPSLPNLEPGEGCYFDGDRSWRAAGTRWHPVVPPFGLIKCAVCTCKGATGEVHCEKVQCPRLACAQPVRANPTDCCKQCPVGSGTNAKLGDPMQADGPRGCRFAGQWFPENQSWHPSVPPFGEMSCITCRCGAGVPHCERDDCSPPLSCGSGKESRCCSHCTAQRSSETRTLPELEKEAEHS


Experiments:
[1] = molecular target: T1, recombinant murine chordin; test: SPR; Sensiq Pioneer biosensor; chordin amine-coupled (NHS/EDC, 10 mM acetate pH 4.5) to a COOH1 SPR chip; TLL1 variant as free analyte at 10-400 nM, 10 ul/min for 11 min; HBS-TE (HEPES-buffered saline, 0.005% Tween 20), 25 °C; regeneration with 10 mM HCl; global fitting; Kd from koff/kon; details: both partners purified
[2] = molecular target: T1, recombinant murine chordin; test: cell-based or functional assay

Ka [1] [M⁻¹]	Kd [1] [µM]	koff [1] [s⁻¹]	kon [1] [M⁻¹ s⁻¹]	cleavage of chordin (densitometry of the intact chordin band after SDS/PAGE), activity against wild-type TLL1 [2]	Binder
8.6e+06	0.117	0.000305	2600		recombinant wild-type mammalian tolloid-like 1 (TLL1) (enzyme, human, UniProt O43897-1 148-1013, looked up, Human tolloid-like 1 (TLL1), functional enzyme lacking the signal peptide and the latency pro-domain; encoded by nucleotides 1089-3686 of NM_012464.4 (mRNA variant 1 TLL1); Expressed behind the signal peptide of the procollagen I alpha 1 chain (nucleotides 5127-5192 of NM_007400.1 as printed) for secretion; also called WT; native TLL1; source: HT-1080 cells, stably transfected (pIRESneo3), …) AATSRTERIWPGGVIPYVIGGNFTGSQRAMFKQAMRHWEKHTCVTFIERSDEESYIVFTYRPCGCCSYVGRRGNGPQAISIGKNCDKFGIVVHELGHVIGFWHEHTRPDRDNHVTIIRENIQPGQEYNFLKMEPGEVNSLGERYDFDSIMHYARNTFSRGMFLDTILPSRDDNGIRPAIGQRTRLSKGDIAQARKLYRCPACGETLQESNGNLSSPGFPNGYPSYTHCIWRVSVTPGEKIVLNFTTMDLYKSSLCWYDYIEVRDGYWRKSPLLGRFCGDKLPEVLTSTDSRMWIEFRSSSNWVGKGFAAVYEAICGGEIRKNEGQIQSPNYPDDYRPMKECVWKITVSESYHVGLTFQSFEIERHDNCAYDYLEVRDGTSENSPLIGRFCGYDKPEDIRSTSNTLWMKFVSDGTVNKAGFAANFFKEEDECAKPDRGGCEQRCLNTLGSYQCACEPGYELGPDRRSCEAACGGLLTKLNGTITTPGWPKEYPPNKNCVWQVVAPTQYRISVKFEFFELEGNEVCKYDYVEIWSGLSSESKLHGKFCGAEVPEVITSQFNNMRIEFKSDNTVSKKGFKAHFFSDKDECSKDNGGCQHECVNTMGSYMCQCRNGFVLHDNKHDCKEAECEQKIHSPSGLITSPNWPDKYPSRKECTWEISATPGHRIKLAFSEFEIEQHQECAYDHLEVFDGETEKSPILGRLCGNKIPDPLVATGNKMFVRFVSDASVQRKGFQATHSTECGGRLKAESKPRDLYSHAQFGDNNYPGQVDCEWLLVSERGSRLELSFQTFEVEEEADCGYDYVELFDGLDSTAVGLGRFCGSGPPEEIYSIGDSVLIHFHTDDTINKKGFHIRYKSIRYPDTTHTKK
41000	25	0.00091	37	~25 % lower than wild-type TLL1	recombinant TLL1 mutated variant I629V (enzyme, human, UniProt O43897-1 148-1013, looked up, Human tolloid-like 1 (TLL1), functional enzyme lacking the signal peptide and the latency pro-domain; encoded by nucleotides 1089-3686 of NM_012464.4 (mRNA variant 1 TLL1); mutation found in ASD6 patients, in the CUB3 domain; Same construct as m1 (procollagen I alpha 1 signal peptide for secretion, C-terminal 7xHis) with the point mutation; also called Ile629Val; mutation 3; source: HT-1080 …) AATSRTERIWPGGVIPYVIGGNFTGSQRAMFKQAMRHWEKHTCVTFIERSDEESYIVFTYRPCGCCSYVGRRGNGPQAISIGKNCDKFGIVVHELGHVIGFWHEHTRPDRDNHVTIIRENIQPGQEYNFLKMEPGEVNSLGERYDFDSIMHYARNTFSRGMFLDTILPSRDDNGIRPAIGQRTRLSKGDIAQARKLYRCPACGETLQESNGNLSSPGFPNGYPSYTHCIWRVSVTPGEKIVLNFTTMDLYKSSLCWYDYIEVRDGYWRKSPLLGRFCGDKLPEVLTSTDSRMWIEFRSSSNWVGKGFAAVYEAICGGEIRKNEGQIQSPNYPDDYRPMKECVWKITVSESYHVGLTFQSFEIERHDNCAYDYLEVRDGTSENSPLIGRFCGYDKPEDIRSTSNTLWMKFVSDGTVNKAGFAANFFKEEDECAKPDRGGCEQRCLNTLGSYQCACEPGYELGPDRRSCEAACGGLLTKLNGTVTTPGWPKEYPPNKNCVWQVVAPTQYRISVKFEFFELEGNEVCKYDYVEIWSGLSSESKLHGKFCGAEVPEVITSQFNNMRIEFKSDNTVSKKGFKAHFFSDKDECSKDNGGCQHECVNTMGSYMCQCRNGFVLHDNKHDCKEAECEQKIHSPSGLITSPNWPDKYPSRKECTWEISATPGHRIKLAFSEFEIEQHQECAYDHLEVFDGETEKSPILGRLCGNKIPDPLVATGNKMFVRFVSDASVQRKGFQATHSTECGGRLKAESKPRDLYSHAQFGDNNYPGQVDCEWLLVSERGSRLELSFQTFEVEEEADCGYDYVELFDGLDSTAVGLGRFCGSGPPEEIYSIGDSVLIHFHTDDTINKKGFHIRYKSIRYPDTTHTKK
55000	18	0.0006	33	~25 % lower than wild-type TLL1	recombinant TLL1 mutated variant V238A (enzyme, human, UniProt O43897-1 148-1013, looked up, Human tolloid-like 1 (TLL1), functional enzyme lacking the signal peptide and the latency pro-domain; encoded by nucleotides 1089-3686 of NM_012464.4 (mRNA variant 1 TLL1); mutation found in ASD6 patients, in the catalytic domain; Same construct as m1 (procollagen I alpha 1 signal peptide for secretion, C-terminal 7xHis) with the point mutation; also called Val238Ala; mutation 2; source: HT-1080 …) AATSRTERIWPGGVIPYVIGGNFTGSQRAMFKQAMRHWEKHTCVTFIERSDEESYIVFTYRPCGCCSYVGRRGNGPQAISIGKNCDKFGIAVHELGHVIGFWHEHTRPDRDNHVTIIRENIQPGQEYNFLKMEPGEVNSLGERYDFDSIMHYARNTFSRGMFLDTILPSRDDNGIRPAIGQRTRLSKGDIAQARKLYRCPACGETLQESNGNLSSPGFPNGYPSYTHCIWRVSVTPGEKIVLNFTTMDLYKSSLCWYDYIEVRDGYWRKSPLLGRFCGDKLPEVLTSTDSRMWIEFRSSSNWVGKGFAAVYEAICGGEIRKNEGQIQSPNYPDDYRPMKECVWKITVSESYHVGLTFQSFEIERHDNCAYDYLEVRDGTSENSPLIGRFCGYDKPEDIRSTSNTLWMKFVSDGTVNKAGFAANFFKEEDECAKPDRGGCEQRCLNTLGSYQCACEPGYELGPDRRSCEAACGGLLTKLNGTITTPGWPKEYPPNKNCVWQVVAPTQYRISVKFEFFELEGNEVCKYDYVEIWSGLSSESKLHGKFCGAEVPEVITSQFNNMRIEFKSDNTVSKKGFKAHFFSDKDECSKDNGGCQHECVNTMGSYMCQCRNGFVLHDNKHDCKEAECEQKIHSPSGLITSPNWPDKYPSRKECTWEISATPGHRIKLAFSEFEIEQHQECAYDHLEVFDGETEKSPILGRLCGNKIPDPLVATGNKMFVRFVSDASVQRKGFQATHSTECGGRLKAESKPRDLYSHAQFGDNNYPGQVDCEWLLVSERGSRLELSFQTFEVEEEADCGYDYVELFDGLDSTAVGLGRFCGSGPPEEIYSIGDSVLIHFHTDDTINKKGFHIRYKSIRYPDTTHTKK
24000	42	0.0018	43	50 % lower than wild-type TLL1	recombinant TLL1 mutated variant M182L (enzyme, human, UniProt O43897-1 148-1013, looked up, Human tolloid-like 1 (TLL1), functional enzyme lacking the signal peptide and the latency pro-domain; encoded by nucleotides 1089-3686 of NM_012464.4 (mRNA variant 1 TLL1); mutation found in ASD6 patients, in the catalytic domain; Same construct as m1 (procollagen I alpha 1 signal peptide for secretion, C-terminal 7xHis) with the point mutation; also called Met182Leu; mutation 1; source: HT-1080 …) AATSRTERIWPGGVIPYVIGGNFTGSQRAMFKQALRHWEKHTCVTFIERSDEESYIVFTYRPCGCCSYVGRRGNGPQAISIGKNCDKFGIVVHELGHVIGFWHEHTRPDRDNHVTIIRENIQPGQEYNFLKMEPGEVNSLGERYDFDSIMHYARNTFSRGMFLDTILPSRDDNGIRPAIGQRTRLSKGDIAQARKLYRCPACGETLQESNGNLSSPGFPNGYPSYTHCIWRVSVTPGEKIVLNFTTMDLYKSSLCWYDYIEVRDGYWRKSPLLGRFCGDKLPEVLTSTDSRMWIEFRSSSNWVGKGFAAVYEAICGGEIRKNEGQIQSPNYPDDYRPMKECVWKITVSESYHVGLTFQSFEIERHDNCAYDYLEVRDGTSENSPLIGRFCGYDKPEDIRSTSNTLWMKFVSDGTVNKAGFAANFFKEEDECAKPDRGGCEQRCLNTLGSYQCACEPGYELGPDRRSCEAACGGLLTKLNGTITTPGWPKEYPPNKNCVWQVVAPTQYRISVKFEFFELEGNEVCKYDYVEIWSGLSSESKLHGKFCGAEVPEVITSQFNNMRIEFKSDNTVSKKGFKAHFFSDKDECSKDNGGCQHECVNTMGSYMCQCRNGFVLHDNKHDCKEAECEQKIHSPSGLITSPNWPDKYPSRKECTWEISATPGHRIKLAFSEFEIEQHQECAYDHLEVFDGETEKSPILGRLCGNKIPDPLVATGNKMFVRFVSDASVQRKGFQATHSTECGGRLKAESKPRDLYSHAQFGDNNYPGQVDCEWLLVSERGSRLELSFQTFEVEEEADCGYDYVELFDGLDSTAVGLGRFCGSGPPEEIYSIGDSVLIHFHTDDTINKKGFHIRYKSIRYPDTTHTKK
